Measurements as given in ChEMBL document CHEMBL1153321, “Approaches to the simultaneous inactivation of metallo- and serine-beta-lactamases” (Bioorg Med Chem Lett, 2009).

Assays:
Settings in all cases: Enterobacter cloacae
[1] = substrate: CC(=O)OCC1=C(C(=O)O)N2C(=O)[C@@H](N)[C@H]2SC1
[2] = substrate: CC(=O)OCC1=C(C(=O)O)N2C(=O)[C@@H](NC(=O)Cc3cccs3)[C@H]2SC1
[3] = substrate: CC(=O)OCC1=C(C(=O)O)N2C(=O)/C(=N/O)[C@H]2S(=O)(=O)C1
[4] = substrate: CC(=O)OCC1=C(C(=O)O)N2C(=O)[C@@H](N(O)C(=O)Cc3ccccc3)[C@H]2SC1
[5] = substrate: CC(=O)OCC1=C(C(=O)O)N2C(=O)[C@@H](NO)[C@H]2SC1
[6] = substrate: CC1=C(C(=O)O)N2C(=O)/C(=N/O)[C@H]2S(=O)(=O)C1
[7] = substrate: CC(=O)OCC1=C(C(=O)O)N2C(=O)[C@@H](N(O)C=O)[C@H]2SC1
[8] = substrate: CC(=O)OCC1=C(C(=O)O)N2C(=O)[C@@H](NC=O)[C@H]2SC1
[9] = substrate: CC(=O)OCC1=C(C(=O)O)N2C(=O)/C(=N/O)[C@H]2SC1

B1: Beta-lactamase (Enterobacter cloacae), P05364 (protein)
chain: MMRKSLCCALLLGISCSALATPVSEKQLAEVVANTITPLMKAQSVPGMAVAVIYQGKPHYYTFGKADIAANKPVTPQTLFELGSISKTFTGVLGGDAIARGEISLDDAVTRYWPQLTGKQWQGIRMLDLATYTAGGLPLQVPDEVTDNASLLRFYQNWQPQWKPGTTRLYANASIGLFGALAVKPSGMPYEQAMTTRVLKPLKLDHTWINVPKAEEAHYAWGYRDGKAVRVSPGMLDAQAYGVKTNVQDMANWVMANMAPENVADASLKQGIALAQSRYWRIGSMYQGLGWEMLNWPVEANTVVEGSDSKVALAPLPVAEVNPPAPPVKASWVHKTGSTGGFGSYVAFIPEKQIGIVMLANTSYPNPARVEAAYHILEALQ
Q: Which results are given for B1?
A: Km [1]: 290 µM; kcat [1]: 0.46 s⁻¹; Km [2]: 15.4 µM; kcat [2]: 690 s⁻¹; Km [3]: > 200 µM; Km [4]: 5 µM; kcat [4]: 0.49 s⁻¹; Km [5]: 1450 µM; kcat [5]: 1.6 s⁻¹; Km [6]: 4.5 µM; kcat [6]: 0.54 s⁻¹; Km [7]: 240 µM; kcat [7]: 0.32 s⁻¹; Km [8]: 315 µM; kcat [8]: 1180 s⁻¹; Km [9]: 366 µM; kcat [9]: 2.56 s⁻¹
